{"source": "patent US20210115153A1", "about": "(PEPTRON, published 2021)", "molecular_target": "T1, recombinant hMUC1-C (rhMUC1-C) protein (human, UniProt P15941 961-1152)", "T1 construct": "Expressed in E. coli Rosetta (not glycosylated), purified from inclusion bodies in 8 M urea over Ni-NTA; also called hMUC1-C terminal protein; not shown: C-terminal His-tag of vector pET-22b", "T1 sequence": "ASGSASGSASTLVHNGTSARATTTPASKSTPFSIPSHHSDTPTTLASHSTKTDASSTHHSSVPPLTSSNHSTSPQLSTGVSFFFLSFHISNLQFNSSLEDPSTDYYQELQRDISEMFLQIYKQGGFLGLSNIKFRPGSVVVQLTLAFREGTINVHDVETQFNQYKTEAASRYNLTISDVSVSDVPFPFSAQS", "test": "ELISA of hybridoma culture supernatant on coated rhMUC1-C", "method": "The total amount of rhMUC1-C-specific IgG was measured by ELISA. A 96-well immunoplate was coated with 10 […] of rhMUC1-C protein (Example 2) and blocked with bovine serum albumin (BSA) in PBS-T (PBS containing 0.1% (v/v) Tween-20). The mouse serum immunized in Example 5, hybridoma cell culture supernatant, or purified antibody was diluted with PBS-T and cultured at room temperature for 2 hours. The plate was washed 3 times with PBS-T and cultured with a goat anti-mouse IgG HRP-conjugated secondary antibody for 1 hour. The plate was developed using TMB substrate solutions A and B (1:1 ratio) (Kirkegaard and Perry Laboratories, Gaithersburg, Md., USA), the absorbance was measured at 450 nm using a Spectra Max 250 microplate reader (Molecular Devices, Sunnyvale, USA), and a colorimetric assay was performed.\nThe spleen cells from mice immunized with rhMUC1-C protein in Example 5 were fused with SP2/0 myeloma cells (ATCC) using polyethylene glycol (PEG, Sigma-Aldrich). The fused cells were cultured and selected as a hypoxanthine-aminopterin-thymidine (HAT, Sigma-Aldrich) medium. The culture supernatant of the selected hybridoma cells was subjected to testing for binding to rhMUC1-C protein through ELISA and hybridoma cells, which were positive for binding, i.e., produced rhMUC1-C protein-specific antibody, were screened. […]"}
{"binder": "anti-hMUC1 monoclonal antibody purified from hybridoma hMUC1-1H7 (KCLRF-BP-00395) (antibody, V domains shown, also called anti-hMUC1 antibody; anti-hMUC1-C mouse antibody (1H7)) VH: EVQLQQSGAELAKPGASVKMSCKVSGYTFTSYWMHWVKQRPGQGLEWIGYINPGTGYIEYNQKFKDKATLTADKSSSTAYMQLSSLTSEDSAVYYCASSTAPFDYWGQGTTLTVSS VL: DIVITQSPSSMYASLGERVTITCKASQDIKSYLSWYQQKPWKSPKTLIYYATRLADGVPSRFSGSGSGQDYSLTISSLESDDTATYYCLQYDESPYTFGGGTKLEIKR", "values": [{"measurement": "binding result", "value": "binds"}]}
